The record followed here is the supplement of paper PMC7877785.

± gives the uncertainty stated by the source.

This data set can be described thus: self-splicing fitness, log relative to wild type (ln ratio); higher = more splicing; Tetrahymena group I intron in knt gene, E. coli kanamycin selection, DiMSum; sequences stand for … in CUCUCU…GGAGGGAAAAGUUAUCAGGCAUGCACCUGGUAGCUAGUCUUUAAACCAAUAGAUUGCAUCGGUUUAAAAGGCAAGACCGUCAAAUUGCGGGAAAGGGGUCAACAGCCGUUCAGUACCAAGUCUCAGGGGAAACUUUGAGAUGGCCUUGCAAAGGGUAUGGUAAUAAGCUGACGGACAUGGUCCUAACCACGCAGCCAAGUCCUAAGUCAACAGAUCUUCUGUUGAUAUGGAUGCAGUUCACAGACUAAAUGUCGGUCGGGGAAGAUGUAUUCUUCUCAUAAGAUAUAGUCGGACCUCUCCUUAAUGGGAGCUAGCGGAUGAAGUGAUGCAACACUGGAGCCGCUGGGAACUAAUUUGUAUGCGAAAGUAUAUUGAUUAGUUUUGGAGUACUCGUGGUCG
The essentials: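 Pooled colonies went to amplicon sequencing on an Illumina HiSeq 2500 after six replicate transformations. The plates were LB agar with 100 μg/mL carbenicillin, 50 μM IPTG and 0.2% rhamnose, with or without 25 μg/mL kanamycin, incubated overnight at 37°C or 30°C. The E. coli BL21(DE3) library had all eight P1ex-region intron nucleotides randomised, the intron placed in the knt kanamycin-resistance gene on pET-22b(+). DiMSum fitness is the error-weighted combination of replicate fold changes, kanamycin against none, normalised to wild type.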

CCAAAGCAAUAUUACGAUAG: the “self-splicing fitness (ln)” value (30 °C) is -0.734 ± 0.086 and the “self-splicing fitness (ln)” value (37 °C) worked out at 0.171 ± 0.11.

With ACUAAGCAAUAUUACGAAGG, the “self-splicing fitness (ln)” value is -1.51 ± 0.087 (30 °C) and -0.966 ± 0.12 (37 °C).

In the case of UCCGAGCAAUAUUACGUGGU, the “self-splicing fitness (ln)” value (30 °C) was -2.83 ± 0.29 and the “self-splicing fitness (ln)” value (37 °C) was -2.29 ± 0.21.

Regarding UUCGAGCAAUAUUACGCUCA, the “self-splicing fitness (ln)” value by setting is: (30 °C) -2.23 ± 0.25; (37 °C) -1.9 ± 0.29.

Take GGUAAGCAAUAUUACGCAGC: the “self-splicing fitness (ln)” value was -0.901 ± 0.24 (30 °C) and -1.19 ± 0.23 (37 °C).

With CACUAGCAAUAUUACGAGGC, the “self-splicing fitness (ln)” value (30 °C) is -4.08 ± 0.42 and the “self-splicing fitness (ln)” value (37 °C) was -2.38 ± 0.2.

With UACUAGCAAUAUUACGUAGG, the “self-splicing fitness (ln)” value (30 °C) is -4.09 ± 0.35 and the “self-splicing fitness (ln)” value (37 °C) was -1.69 ± 0.22.

For the sequence UGUAAGCAAUAUUACGGUAA, the “self-splicing fitness (ln)” value is, setting by setting: (30 °C) -1.8 ± 0.2; (37 °C) -0.586 ± 0.12.

Consider AACUAGCAAUAUUACGAAGC, for which the “self-splicing fitness (ln)” value is, setting by setting: (30 °C) -2.35 ± 0.4; (37 °C) -0.29 ± 0.35.

Take UCUAAGCAAUAUUACGGGAC: the “self-splicing fitness (ln)” value was -3.56 ± 0.35 (30 °C) and -2.34 ± 0.4 (37 °C).

AGGAAGCAAUAUUACGGGUU: the “self-splicing fitness (ln)” value by setting is: (30 °C) -3.14 ± 0.15; (37 °C) -1.96 ± 0.15.

As to CUAAAGCAAUAUUACGAUGG, the “self-splicing fitness (ln)” value is, setting by setting: (30 °C) -0.196 ± 0.058; (37 °C) 0.0185 ± 0.091.

In the case of AAUAAGCAAUAUUACGGUCC, the “self-splicing fitness (ln)” value was -1.47 ± 0.14 (30 °C) and -0.63 ± 0.22 (37 °C).

As for ACUGAGCAAUAUUACGCACA, the “self-splicing fitness (ln)” value by setting is: (30 °C) -2.37 ± 0.4; (37 °C) -2.15 ± 0.29.

Turning to ACAGAGCAAUAUUACGAGUU, the “self-splicing fitness (ln)” value runs as follows: (30 °C) -3.3 ± 0.2; (37 °C) -1.8 ± 0.14.

Take GGACAGCAAUAUUACGUUGA: the “self-splicing fitness (ln)” value is -0.48 ± 0.07 (30 °C) and 0.279 ± 0.098 (37 °C).

In the case of UACGAGCAAUAUUACGAGCU, the “self-splicing fitness (ln)” value (30 °C) is -2.28 ± 0.33.

On to UCAUAGCAAUAUUACGGCGC, for which, under “30 °C”, the “self-splicing fitness (ln)” value was -2.63 ± 0.31.

For GGUAAGCAAUAUUACGAGAU, the “self-splicing fitness (ln)” value is -2.94 ± 0.25 (30 °C) and -1.2 ± 0.16 (37 °C).

As to AGACAGCAAUAUUACGCUUA, the “self-splicing fitness (ln)” value (30 °C) is -0.813 ± 0.086 and the “self-splicing fitness (ln)” value (37 °C) was -0.083 ± 0.12.

In the case of CCUUAGCAAUAUUACGUUGU, the “self-splicing fitness (ln)” value by setting is: (30 °C) -3.12 ± 0.17; (37 °C) -3.27 ± 0.24.

For the sequence GCCAAGCAAUAUUACGUAUU, the “self-splicing fitness (ln)” value is, setting by setting: (30 °C) -3.29 ± 0.16; (37 °C) -2.28 ± 0.14.

As for ACUUAGCAAUAUUACGGUGG, the “self-splicing fitness (ln)” value (30 °C) is -3.72 ± 0.3.

AGGGAGCAAUAUUACGGCGC: the “self-splicing fitness (ln)” value (30 °C) is -2.78 ± 0.5 and the “self-splicing fitness (ln)” value (37 °C) is -1.23 ± 0.35.

As for CUAAAGCAAUAUUACGCCUU, the “self-splicing fitness (ln)” value reads like this: (30 °C) -3.79 ± 0.26; (37 °C) -1.25 ± 0.22.

GAGAAGCAAUAUUACGCGUC: the “self-splicing fitness (ln)” value runs as follows: (30 °C) -3.46 ± 0.34; (37 °C) -2.31 ± 0.33.

CACAAGCAAUAUUACGAGUU: the “self-splicing fitness (ln)” value was -2.91 ± 0.11 (30 °C) and -1.13 ± 0.089 (37 °C).

On to GAAUAGCAAUAUUACGUACA, for which the “self-splicing fitness (ln)” value (30 °C) is -1.7 ± 0.14 and the “self-splicing fitness (ln)” value (37 °C) was -0.774 ± 0.2.

Consider UUUCAGCAAUAUUACGUGAG, for which the “self-splicing fitness (ln)” value runs as follows: (30 °C) -0.129 ± 0.054; (37 °C) -0.623 ± 0.07.

UACGAGCAAUAUUACGCGUC: the “self-splicing fitness (ln)” value runs as follows: (30 °C) -1.91 ± 0.13; (37 °C) -2.3 ± 0.19.

On to ACUGAGCAAUAUUACGCCAG, for which the “self-splicing fitness (ln)” value is -2.93 ± 0.49 (30 °C) and -2.78 ± 0.47 (37 °C).

Consider GGCCAGCAAUAUUACGAGCG, for which the “self-splicing fitness (ln)” value (30 °C) is -0.269 ± 0.098 and the “self-splicing fitness (ln)” value (37 °C) was determined as 0.191 ± 0.13.

For the sequence CUGUAGCAAUAUUACGCUAC, the “self-splicing fitness (ln)” value was -3.21 ± 0.35 (30 °C) and -1.39 ± 0.32 (37 °C).

With ACGGAGCAAUAUUACGUCUG, the “self-splicing fitness (ln)” value reads like this: (30 °C) -1.94 ± 0.19; (37 °C) 0.013 ± 0.14.
